Laboratory results published in patent US20230348881.

B1: human MMP7 (protein)
chain: YSLFPNSPKWTSKVVTYRIVSYTRDLPHITVDRLVSKALNMWGKEIPLHFRKVVWGTADIMIGFARGAHGDSYPFDGPGNTLAHAFAPGTGLGGDAHFDEDERWTDGSSLGINFLYAATHELGHSLGMGHSSDPNAVMYPTYGNGDPQNFKLSQDDIKGIQKLYGKRSNSRKK
B2: human MMP12 (matrix metalloproteinase-12) (protein)
chain: GPVWRKHYITYRINNYTPDMNREDVDYAIRKAFQVWSNVTPLKFSKINTGMADILVVFARGAHGDFHAFDGKGGILAHAFGPGSGIGGDAHFDEDEFWTTHSGGTNLFLTAVHEIGHSLGLGHSSDPKAVMFPTYKYVDINTFRLSADDIRGIQSLYG

Key:
[1] = molecular target: exemplary modified PPE proproteins
[2] = molecular target: Mutant 2, modified PPE proprotein with the MMP12 cleavage site, PPE optimized (SEQ ID NO: 9)
[3] = molecular target: Mutant 3, modified PPE proprotein with the MMP12 cleavage site, balanced (SEQ ID NO: 10)
[4] = molecular target: wild-type PPE proprotein as used in Example 2
Sequence of wild-type PPE proprotein as used in Example 2 (chain, as listed by the source): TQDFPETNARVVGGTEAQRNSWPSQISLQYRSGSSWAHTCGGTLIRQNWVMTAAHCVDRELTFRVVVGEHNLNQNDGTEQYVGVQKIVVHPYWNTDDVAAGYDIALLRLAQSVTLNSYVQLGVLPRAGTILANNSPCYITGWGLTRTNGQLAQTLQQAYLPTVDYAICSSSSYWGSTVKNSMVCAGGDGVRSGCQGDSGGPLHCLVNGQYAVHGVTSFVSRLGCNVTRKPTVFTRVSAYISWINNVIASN

Sequence of Mutant 3, modified PPE proprotein with the MMP12 cleavage site, balanced (SEQ ID NO: 10) (chain, as listed by the source mutant): as the sequence (chain, as listed by the source) above, with T7G, N8A, R10G, V11L counted along it
Sequence of Mutant 2, modified PPE proprotein with the MMP12 cleavage site, PPE optimized (SEQ ID NO: 9) (chain, as listed by the source mutant): as the sequence (chain, as listed by the source) above, with T7G, N8A, R10G counted along it

Row | Protein | catalytic activity after protease digestion (colorimetric substrate assay), FIG. 4B [1] | protease cleavage by SDS-PAGE and Coomassie blue staining [2] | protease cleavage by SDS-PAGE and Coomassie blue staining [3] | catalytic activity after protease digestion (colorimetric substrate assay, N-Methoxysuccinyl-Ala-Ala-Pro-Val p-nitroanilide), FIG. 4A [1] | catalytic activity after protease digestion (colorimetric substrate assay), FIG. 4B [4]
1 | B1 | partially-catalytically-active after incubation with MMP7 | – | – | – | –
2 | B2 | catalytically-active after incubation with MMP12 | the MMP12 protease cleaved the exemplary modified PPE proteins designated as Mutant 2 (3A) | the MMP12 protease cleaved the exemplary modified PPE proteins designated as ... Mutant 3 (3B) | catalytically-active after incubation by MMP12, relative to the activity of the native PPE as a control | catalytically-inactive after incubation with MMP12 or no protease
